Results taken from EP4682166A1 (Guangzhou Enmai Biotechnology Co., Ltd, dated 2026).

T1: NMI-flag overexpressed protein (293T cells transfected with the hNMI-flag plasmid) (human) (UniProt Q13287)
T1 sequence (looked up): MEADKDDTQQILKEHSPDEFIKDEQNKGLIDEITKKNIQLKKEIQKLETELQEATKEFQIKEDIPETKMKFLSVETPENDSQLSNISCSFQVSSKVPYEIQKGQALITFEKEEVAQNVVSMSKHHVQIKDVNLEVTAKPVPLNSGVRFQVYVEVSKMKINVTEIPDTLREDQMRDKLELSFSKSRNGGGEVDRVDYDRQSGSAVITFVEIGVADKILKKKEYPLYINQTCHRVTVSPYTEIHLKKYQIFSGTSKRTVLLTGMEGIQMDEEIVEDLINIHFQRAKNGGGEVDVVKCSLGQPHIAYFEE

T2: human NMI (N-myc Interacting protein) (human) (UniProt Q13287)
T2 sequence (looked up): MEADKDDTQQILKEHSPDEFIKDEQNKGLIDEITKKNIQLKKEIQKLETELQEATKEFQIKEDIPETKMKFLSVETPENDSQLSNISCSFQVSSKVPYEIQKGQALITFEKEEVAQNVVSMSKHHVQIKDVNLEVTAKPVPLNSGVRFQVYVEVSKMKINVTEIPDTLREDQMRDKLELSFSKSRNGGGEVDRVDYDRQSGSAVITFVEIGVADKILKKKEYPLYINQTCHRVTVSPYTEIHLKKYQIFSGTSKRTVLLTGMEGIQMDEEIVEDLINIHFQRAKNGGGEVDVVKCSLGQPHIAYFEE


Assays:
[1] = biological target: T1, NMI-flag overexpressed protein (293T cells transfected with the hNMI-flag plasmid) (human); test: sandwich ELISA; detection 94C4-1-biotin; cell lysates of NMI-flag 293T, replicate 1
[2] = biological target: T2, human NMI (N-myc Interacting protein) (human); test: magnetic-bead chemiluminescent sandwich, kit of Example 8-1; capture 98G10 beads, detection acridinium-B-8; series 2, hNMI 10000 pg/mL
[3] = biological target: T2, human NMI (N-myc Interacting protein) (human); test: magnetic-bead chemiluminescent sandwich; capture 98G10 beads, detection acridinium-B-8 (2.0 mg B-8 labelled); hNMI 400 pg/mL
[4] = biological target: T2, human NMI (N-myc Interacting protein) (human); test: magnetic-bead chemiluminescent sandwich; capture 98G10 beads (1.0 mg 98G10), detection acridinium-B-8; hNMI 1000 pg/ml
[5] = biological target: T2, human NMI (N-myc Interacting protein) (human); test: magnetic-bead chemiluminescent sandwich; capture 98G10 beads (1.0 mg 98G10), detection acridinium-B-8; hNMI 400 pg/ml
[6] = biological target: T2, human NMI (N-myc Interacting protein) (human); test: magnetic-bead chemiluminescent sandwich; capture 98G10 beads, detection acridinium-B-8 (2.0 mg B-8 labelled); hNMI 1000 pg/mL
[7] = biological target: T2, human NMI (N-myc Interacting protein) (human); test: magnetic-bead chemiluminescent sandwich; capture 98G10 beads, detection acridinium-B-8 (2.0 mg B-8 labelled); hNMI 100 pg/mL
[8] = biological target: T2, human NMI (N-myc Interacting protein) (human); test: magnetic-bead chemiluminescent sandwich; capture 98G10 beads, detection acridinium-B-8 (1.0 mg B-8 labelled); hNMI 2000 pg/mL
[9] = biological target: T2, human NMI (N-myc Interacting protein) (human); test: magnetic-bead chemiluminescent sandwich, kit of Example 8-1; capture 98G10 beads, detection acridinium-B-8; series 1, hNMI 50 pg/mL

OD450 [1] [OD450]	Signal value [2]	Signal value [3]	Signal value [4]	Signal value [5]	Signal value [6]	Signal value [7]	Signal value [8]	Signal value [9]	Binder
3.03									monoclonal antibody B-8 (antibody, V domains shown, Rabbit monoclonal antibody; also called B8-1) VH: QSLEESGGDLVKPGASLTLTCTASGFSFSSSYYMCWVRQAPGKGLEWIACIYAGSSGSTYYASWAKGRFTISKTSSTTVTLQMTSLTAADTATYFCAREYSYDDYGDFWGFNLWGPGTLVTVSS VL: ALVMTQTPSSVSAAVGGTVTINCQASQNIYTNLAWYQQKPGQPPKLLIYGASNLESGVPSRFKGSGSGTEYTLTISDLECDDAATYYCQSSLYSRIADRANAFGGGTEVVVK
	1.19e+06	44600	201000	86800	116000	11900	204000	2010	acridinium ester-labeled monoclonal antibody B-8 (antibody, V domains shown, acridinium ester label on the antibody, site not stated) VH: QSLEESGGDLVKPGASLTLTCTASGFSFSSSYYMCWVRQAPGKGLEWIACIYAGSSGSTYYASWAKGRFTISKTSSTTVTLQMTSLTAADTATYFCAREYSYDDYGDFWGFNLWGPGTLVTVSS VL: ALVMTQTPSSVSAAVGGTVTINCQASQNIYTNLAWYQQKPGQPPKLLIYGASNLESGVPSRFKGSGSGTEYTLTISDLECDDAATYYCQSSLYSRIADRANAFGGGTEVVVK
